Results on one substance are retold here after paper PMC5651189.

This assay concerns the target PKA regulatory subunit RIIα (human (endogenous in SK-Br-3)) (UniProt P13861). The experiment in a line: proximity ligation.

Sequence of PKA regulatory subunit RIIα (human (endogenous in SK-Br-3)) (P13861 whole entry): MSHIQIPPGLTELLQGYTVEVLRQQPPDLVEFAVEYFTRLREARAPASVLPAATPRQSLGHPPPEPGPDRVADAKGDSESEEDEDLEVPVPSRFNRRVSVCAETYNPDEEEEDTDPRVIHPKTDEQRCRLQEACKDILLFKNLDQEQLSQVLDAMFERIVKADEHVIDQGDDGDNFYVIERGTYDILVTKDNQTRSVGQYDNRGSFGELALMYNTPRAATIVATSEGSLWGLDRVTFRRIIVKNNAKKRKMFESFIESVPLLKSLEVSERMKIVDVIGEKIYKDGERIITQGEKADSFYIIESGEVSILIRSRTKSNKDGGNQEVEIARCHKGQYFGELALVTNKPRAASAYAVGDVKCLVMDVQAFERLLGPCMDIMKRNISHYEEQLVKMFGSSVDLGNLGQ

The substance “PKA catalytic subunit (PKAc) (from UniProt P17612 1-351) (enzyme)” gave a decrease of CICF in SK.tDp^T39A against SK.empty cells of 67% and an increase of CICF in SK.tDp against SK.empty cells of 36%.
